The test concerns the target human ACE2-Fc (human) (UniProt Q9BYF1). Put plainly: ELISA.

human ACE2-Fc (human), sequence (Q9BYF1 18-740): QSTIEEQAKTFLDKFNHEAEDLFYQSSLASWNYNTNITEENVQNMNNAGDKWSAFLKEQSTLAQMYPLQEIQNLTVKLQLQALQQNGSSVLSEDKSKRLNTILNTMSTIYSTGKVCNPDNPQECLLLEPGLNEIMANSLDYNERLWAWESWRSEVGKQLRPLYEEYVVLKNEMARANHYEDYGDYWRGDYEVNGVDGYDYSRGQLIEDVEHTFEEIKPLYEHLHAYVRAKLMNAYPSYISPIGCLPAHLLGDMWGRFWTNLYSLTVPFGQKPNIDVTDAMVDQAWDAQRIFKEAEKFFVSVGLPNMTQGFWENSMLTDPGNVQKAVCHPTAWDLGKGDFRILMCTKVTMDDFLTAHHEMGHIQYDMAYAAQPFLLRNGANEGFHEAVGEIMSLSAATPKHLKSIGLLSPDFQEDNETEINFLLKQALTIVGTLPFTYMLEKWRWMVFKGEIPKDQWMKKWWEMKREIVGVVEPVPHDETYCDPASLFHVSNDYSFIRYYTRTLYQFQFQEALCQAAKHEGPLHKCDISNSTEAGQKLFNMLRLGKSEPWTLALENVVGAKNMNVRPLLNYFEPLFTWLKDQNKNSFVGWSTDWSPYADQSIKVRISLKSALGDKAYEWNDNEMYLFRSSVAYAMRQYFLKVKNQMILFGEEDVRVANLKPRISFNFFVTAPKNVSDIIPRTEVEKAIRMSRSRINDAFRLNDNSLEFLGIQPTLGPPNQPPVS

“SARS-CoV S 2P ectodomain trimer (from UniProt P59594 14-1195) (domain or fragment)” gave an EC50 of 4.11 nM.

(Values after publication PMC7986998.)
